# Experimental data: patent US20240190962A1 (IMMUNOWAKE, published 2024)
# T1: human IL-2 receptor (IL-2Rα, IL-2Rβ, IL-2Rγ) (human, UniProt P01589 22-272; P14784 27-551; P31785 23-369)
# T1 sequence (looked up) 1: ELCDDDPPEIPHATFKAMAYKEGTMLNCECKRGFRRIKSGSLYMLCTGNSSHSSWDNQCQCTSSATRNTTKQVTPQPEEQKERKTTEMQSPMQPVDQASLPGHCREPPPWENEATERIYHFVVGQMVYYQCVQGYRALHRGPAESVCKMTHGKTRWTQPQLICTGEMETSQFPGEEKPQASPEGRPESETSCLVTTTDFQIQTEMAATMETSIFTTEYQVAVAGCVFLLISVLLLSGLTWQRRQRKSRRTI
# T1 sequence (looked up) 2: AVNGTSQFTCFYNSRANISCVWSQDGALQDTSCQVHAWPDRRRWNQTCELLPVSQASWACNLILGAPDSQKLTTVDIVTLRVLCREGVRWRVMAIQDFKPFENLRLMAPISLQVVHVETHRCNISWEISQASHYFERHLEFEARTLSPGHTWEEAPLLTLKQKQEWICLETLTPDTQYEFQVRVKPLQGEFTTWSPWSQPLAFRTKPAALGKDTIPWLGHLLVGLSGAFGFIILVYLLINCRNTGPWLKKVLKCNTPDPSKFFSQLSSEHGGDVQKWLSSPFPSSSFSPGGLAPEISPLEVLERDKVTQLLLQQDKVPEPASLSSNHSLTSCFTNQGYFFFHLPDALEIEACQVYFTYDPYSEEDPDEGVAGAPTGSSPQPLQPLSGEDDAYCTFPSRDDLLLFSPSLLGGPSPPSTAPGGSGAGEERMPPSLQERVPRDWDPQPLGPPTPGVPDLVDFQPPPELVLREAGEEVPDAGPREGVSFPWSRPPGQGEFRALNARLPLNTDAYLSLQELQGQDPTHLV
# T1 sequence (looked up) 3: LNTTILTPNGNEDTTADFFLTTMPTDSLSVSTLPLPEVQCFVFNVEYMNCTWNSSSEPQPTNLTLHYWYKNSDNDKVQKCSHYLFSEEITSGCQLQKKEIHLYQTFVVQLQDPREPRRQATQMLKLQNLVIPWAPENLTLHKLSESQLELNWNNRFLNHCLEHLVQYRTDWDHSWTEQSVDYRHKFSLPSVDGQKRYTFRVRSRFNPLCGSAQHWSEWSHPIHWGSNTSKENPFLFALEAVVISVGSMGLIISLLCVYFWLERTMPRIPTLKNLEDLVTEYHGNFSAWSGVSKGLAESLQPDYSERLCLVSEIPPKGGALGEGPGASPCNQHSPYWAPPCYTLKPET
# B1: ligand-IL-2 mutant-PD-L2-Fc (Fc fusion)
# chain 1: LFTVTVPKELYIIEHGSNVTLECNFDTGSHVNLGAITASLQKVENDTSPHRERATLLEEQLPLGKASFHIPQVQVRDEGQYQCIIIYGVAWDYKYLTLKVKASYRKINTHILKVPETDEVELTCQATGYPLAEVSWPNVSVPANTSHSRTPEGLYQVTSVLRLKPPPGRNFSCVFWNTHVRELTLASIDLQSQMEPRTHPTGGGGSAPTSSSTKKTQLQLEHLLLDLQMILNGINNYKNPKLTDMLTFEFYMPKKATELKHLQCLERELKPLEEVLNLAQSKNFHLRPRDLISNINVIVLELKGSETTFMCEYADETATIVEFLNRWITFCQSIISTLTDKTHTCPPCPAPEDEGGPSVFLFPPKPKDTLMISRTPEVTCVVVDVSHEDPEVKFNWYVDGVEVHNAKTKPREEQYNSTYRVVSVLTVLHQDWLNGKEYKCKVSNKALPAPIEKTISKAKGQPREPQVYVYPPSREEMTKNQVSLTCLVKGFYPSDIAVEWESNGQPENNYKTTPPVLDEDGSFALVSKLTVDKSRWQQGNVFSCSVMHEALHNHYTQKSLSLSPGK
# chain 2: LFTVTVPKELYIIEHGSNVTLECNFDTGSHVNLGAITASLQKVENDTSPHRERATLLEEQLPLGKASFHIPQVQVRDEGQYQCIIIYGVAWDYKYLTLKVKASYRKINTHILKVPETDEVELTCQATGYPLAEVSWPNVSVPANTSHSRTPEGLYQVTSVLRLKPPPGRNFSCVFWNTHVRELTLASIDLQSQMEPRTHPTGGGGSDKTHTCPPCPAPEKKGGPSVFLFPPKPKDTLMISRTPEVTCVVVDVSHEDPEVKFNWYVDGVEVHNAKTKPREEQYNSTYRVVSVLTVLHQDWLNGKEYKCKVSNKALPAPIEKTISKAKGQPREPQVYVLPPSREEMTKNQVSLLCLVKGFYPSDIAVEWESNGQPENRYMTWPPVLDSDGSFFLYSKLTVDKSRWQQGNVFSCSVMHEALHNHYTQKSLSLSPGK
# notes: also called IL-2(R38D/K43E/E61R)/PD-L2-Fc immunocytokine; construct #11
# Columns and labels:
# [1] = biological target: T2, human PD-1 on HEK-PD-1-IL-2 cells (human, UniProt Q15116 25-288); assay: FACS on HEK-PD-1-IL-2 cells
# T2 construct: whole, on cells
# T2 sequence (Q15116 25-288): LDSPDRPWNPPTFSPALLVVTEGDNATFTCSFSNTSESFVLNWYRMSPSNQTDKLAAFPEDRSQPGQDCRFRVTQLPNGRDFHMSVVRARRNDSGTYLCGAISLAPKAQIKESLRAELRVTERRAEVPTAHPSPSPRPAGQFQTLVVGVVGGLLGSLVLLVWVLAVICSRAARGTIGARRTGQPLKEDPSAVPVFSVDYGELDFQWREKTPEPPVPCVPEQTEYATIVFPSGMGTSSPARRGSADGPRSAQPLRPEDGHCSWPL
# [2] = biological target: T1, human IL-2 receptor (IL-2Rα, IL-2Rβ, …); assay: cell-based or functional assay
binder,measurement,setting,value
B1,binding result,[1],binds
same,Percent IL-2 signal transduction (HEK-IL-2 reporter assay),[2],2.4%
same,Percent IL-2 signal transduction (HEK-PD-1-IL-2 reporter assay),[2],43.5%
